Values of other authors in PMC10551901.

What was measured:
[1] = target: Rab32 (Homo sapiens) (UniProt Q13637)
[2] = target: Rab38 (Homo sapiens) (UniProt P57729)
[3] = target: Rab29 (Homo sapiens) (UniProt O14966)
Chain of UniProt O14966 (O14966 whole entry): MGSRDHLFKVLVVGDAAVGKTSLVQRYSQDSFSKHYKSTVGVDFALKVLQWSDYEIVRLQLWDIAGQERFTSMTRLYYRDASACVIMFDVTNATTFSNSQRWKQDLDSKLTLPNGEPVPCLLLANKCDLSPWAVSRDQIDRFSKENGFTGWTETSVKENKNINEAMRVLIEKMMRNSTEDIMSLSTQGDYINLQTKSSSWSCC

Chain of UniProt P57729 (P57729 whole entry): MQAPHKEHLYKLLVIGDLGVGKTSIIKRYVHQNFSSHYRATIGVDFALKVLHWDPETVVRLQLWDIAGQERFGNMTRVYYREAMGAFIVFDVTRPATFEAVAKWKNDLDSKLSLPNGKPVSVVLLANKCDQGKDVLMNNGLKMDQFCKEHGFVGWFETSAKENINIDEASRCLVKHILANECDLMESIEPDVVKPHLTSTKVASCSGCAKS
Chain of UniProt Q13637 (Q13637 2-225): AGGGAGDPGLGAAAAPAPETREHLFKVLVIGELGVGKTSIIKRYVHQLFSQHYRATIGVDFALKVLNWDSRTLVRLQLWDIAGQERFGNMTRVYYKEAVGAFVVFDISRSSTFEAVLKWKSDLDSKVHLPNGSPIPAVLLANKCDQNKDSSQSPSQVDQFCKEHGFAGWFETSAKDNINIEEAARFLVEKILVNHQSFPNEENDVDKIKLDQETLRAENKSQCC

Kd [1]: 2000 nM
Kd [2]: 2000 nM
Kd [3]: 2000 nM
Substance: LRRK2 1-552 (from UniProt Q5S007)
